Measured values published in a protein production outcome set (Wang et al. 2014).

Experiment: label from the status in PepcDB records

Row | Sequence | protein production
1 | MTKRFKLKISRILSFKSCRLKDPSSLPFNPVSSSLRRTSPLVNSSADVTTVPQRRRSSFRLHVLTVFGCGRSSTPLDVDLRNSPVLSPPQTPTFQWESEGKWHVIAQVTEEEYETPRRKIYNGGSEKDNRRRLKKKEKSNSRRRGSISSAEEETDRESLLPSSTNLSPEYSSSELPRVTRRPRQLLKKAVIEEESESSSPPPSPARLSSFVQRLMPCTMAAAVMVEGVAVVKKSEDPYEDFKGSMMEMIVEKKMFEVAELEQLLSCFLSLNAKRHHRAIVRAFSEIWVALFSGGSGGGRRSSSFSSVRLSDYDEC | failed
2 | MAILHSVSYGTSDNTLVFIGSLGSTTDMWLPQLDALHKDFRVIAVDHRGHGLSELIEGTPTVADLAQDVLDTLDDLGVGNFGVIGLSLGGAVAQYLAATSDRVTKAAFMCTAAKFGEPQGWLDRAAACRENGTGSLSEAVIQRWFSPTWLENNPASREHFEAMVAGTPSEGYALCCEALATWDFTDRLGEITVPVLTIAGADDPSTPPATVQIIADGVGGESRAEVLSPAAHVPTVERPNEVNELLAQHFA | failed
3 | MRNKNMSTIYQTSATASAGRNGVVSTEDKLLELNLSYPKEMGGSGTATNPEQLFAVGYAACFSNAILHVAREAKVALKEAPVTATVGIGPNGQGGFALSVALAAHIALEDEQARQLVTVAHQVCPYSNAVRGNIDVQVSVNGLAL | not failed
4 | AEGTRGRSSTARCSLFGSDFVNTFDGSMYSFAGYCSYLLAGGCQKRSFSIIGDFQNGKRVSLSVYLGEFFDIHLFVNGTVTQGDQRVSMPYASKGLYLETEAGYYKLSGEAYGFVARIDGSGNFQVLLSDRYFNKTCGLCGNFNIFAEDDFMTQEGTLTSDPYDFANSWALSSGEQWCERASPPSSSCNISSGEMQKGLWEQCQLLKSTSVFARCHPLVDPEPFVALCEKTLCECAGGLECACPALLEYARTCAQEGMVLYGWTDHSACSPVCPAGMEYRQCVSPCARTCQSLHINEMCQERCVDGCSCPEGQLLDEGLCVESTECPCVHSGKRYPPGTSLSRDCNTCICRNSQWICSNEECPGECLVTGQSHFKSFDNRYFTFSGICQYLLARDCQDHSFSIVIETVQCADDRDAVCTRSVTVRLPGLHNSLVKLKHGAGVAMDGQDIQLPLLKGDLRIQHTVTASVRLSYGEDLQMDWDGRGRLLVKLSPVYAGKTCGLCGNYNGNQGDDFLTPSGLAEPRVEDFGNAWKLHGDCQDLQKQHSDPCALNPRMTRFSEEACAVLTSPTFEACHRAVSPLPYLRNCRYDVCSCSDGRECLCGALASYAAACAGRGVRVAWREPGRCELNCPKGQVYLQCGTPCNLTCRSLSYPDEECNEACLEGCFCPPGLYMDERGDCVPKAQCPCYYDGEIFQPEDIFSDHHTMCYCEDGFMHCTMSGVPGSLLPDAVLSSPLSHRSKR | failed
5 | MGANEDQEMELEALRSIYEGDNSFRELSPVSFQYRIGEDGDPKAFLIEVSWTETYPQTAPVISMNAFFNNTISSAVKQSILAKLQEAVEVNLGTAMTYTLFEYAKDHKEQFMENHHPGNSATPVANIISVETPTTAPSSKKKEKKEQLSKAQKRKLADKTDHKGELPRGWNWVDVVKHLSKTGSKDDE | failed
6 | MNQPSSLAADLRGAWHAQAQSHPLITLGLAASAAGVVLLLVAGIVNALTGENRVHVGYAVLGGTAGFAATALGALMALGLRAISARTQDAMLGFAAGMMLAASAFSLILPGLDAAGTIVGPGPAAAAVVALGLGLGVLLMLGLDYFTPHEHERTGHQGPEAARVNRVWLFVLTIILHNLPEGMAIGVSFATGDLRIGLPLTSAIAIQDVPEGLAVALALRAVGLPIGRAVLVAVASGLMEPLGALVGVGISSGFALAYPISMGLAAGAMIFVVSHEVIPETHRNGHETTATVGLMAGFALMMFLDTALG | failed
7 | MVPYLDGEDVAGVQSRVRMYNADENLLTKMQDIEFALFGNLIMRSRMKMGVPAFLGGNGQLVKRRAVEEIGGWDGYAVTEDLNLSVKLMLRGYDVKFSSEAEVFQEAVGDWPAFFRQRTRWLIGNLETLFVYLAPLIDAPITLHRKLDSLFYLFSMLFIGFVMLGYVVFILNLAGFTLRMNAPFIIGIISTIAFFPLVITGIRRDGYSLPRTLILSIEYWAYCLYLLPLFIVAAVHMIRRRERRWAKTFHTG | failed
8 | MSKRVLMVVTNHTTITDDHKTGLWLEEFAVPYLVFQEKGYDVKVASIQGGEVPLDPRSINEKDPSWAEAEAALKHTARLSKDDAHGFDAIFLPGGHGTMFDFPDNETLQYVLQQFAEDGRIIAAVCHGPSGLVNATYKDGTPIVKGKTVTSFTDEEEREVGLDVHMPFLLESTLRLRGANFVRGGKWTDFSVRDGNLITGQNPQSSRSTAEKVVAALEERE | not failed
9 | MLLSPNLLAEGQSRYISDNVFLYLLNGPGTDYRILGSIEAGQPITLQGETQGDYSKIVDHKGREGWVQTNLISSTPSFREQVSTLTNELNEAKAKLAEVLNSTGNQTDEVAELKAQLAEAQTMLAKANQERENLKMAVDHSAQETQFALWREGGIIAAAGLVVGVILVYLPRPQRRNKKRWMLEHHHHHH | failed
10 | MAEKSCSLTEFVGTAIGDTLGLVIANVDTALLDAMKLEKRYRSIGILGARTGAGPHIMAADEAVKATNTEVVSIELPRDTKGGAGHGSLIILGGNDVSDVKRGIEVALKELDRTFGDVYGNEAGHIELQYTARASYALEKAFGAPIGRACGIIVGAPASVGVLMADTALKSANVEVVAYSSPAHGTSFSNEAILVISGDSGAVRQAVTSAREIGKTVLATLGSEPKNDRPSYI | not failed
11 | SSNQTPYIGSKISLISKLDIRYEGILYTVDTNDSTIALAKVRSFGTEKRPTANPVAARDDVYEYIIFKASDIKDLIVCDTPKMANIGGGLPYDPAIISVSSRSAPASDGAPAASAGSSRAGTPSRNSPLGQIIQNQRPGRGGYQQNFQANRGYNNYRGGFAGGYNNQRGHNNYGVPRVNHREKLKFESDFDFEKANEKFQEVLVDNLEKLNIEDKAEPEVEEKKDAAFYDKKTSFFDNISCESLEKAEGKTGRPDWKKERETNQETFGHNAVRSLNYRRGFGGRGRGGNRGYGGYNNGYQHQHQHRGGYNGGYRQNNGGYRRGGYAPRDNQGNTAAAAEQ | failed
12 | MTVVTFLAFLIPILVLAAIGGVVWWFWMKLRYKTARSNEALIIAGPKLGDPKKETNIFTDNEGRSIKIIRGGGHLLKMHQTATPVDLTSFQLKLTTPRVFTNGGVPIIADAVAMVTVSDTLKGIAIYAEQFLGKEQKEIESEISEVLNANLRAILSKMTVEQINEDREGFNLQVTEVAQKQLDSMGFKITSLGLQDLRDADKENGYLENLGRPRIAEVRKRAEIAESNSDKETRIHKANNDKEAKEQEFQRKIEIAAALKEKDLKDAAIKEETERARAKAEQSYLLEKAKLDKEVQEEELQLLARKKEEELRIKHLERERAVKLEEEEAKVRRAKADADFYETTRKAEADAEKARIEGETKARIKREEGLAEAEVIRKRGEAEAEAKRLLAEAIAKHGEVIIIEKLIEMLPQFAESISKPLSNIESVKIIDTGNGNGVSSYSKSITNTMAQIQEPLKELTGLDVSKLLTDLVNRGNTHTVVRTEAVPTDHHGSPVAASTESEEPVEDQPLENSDSEEKLEHHHHHH | not failed
13 | MSDAHVLKSRLEWGEPAFTILDVRDRSTYNDGHIMGAMAMPIEDLVDRASSSLEKSRDIYVYGAGDEQTSQAVNLLRSAGFEHVSELKGGLAAWKAIGGPTEGIIESRLEHHHHHH | failed
14 | MPPKTPRKTAATAAAAAAEPPAPPPPPPPEEDPEQDSGPEDLPLVRLEFEETEEPDFTALCQKLKIPDHVRERAWLTWEKVSSVDGVLGGYIQKKKELWGICIFIAAVDLDEMSFTFTELQKNIEISVHKFFNLLKEIDTSTKVDNAMSRLLKKYDVLFALFSKLERTCELIYLTQPSSSISTEINSALVLKVSWITFLLAKGEVLQMEDDLVISFQLMLCVLDYFIKLSPPMLLKEPYKTAVIPINGSPRTPRRGQNRSARIAKQLENDTRIIEVLCKEHECNIDEVKNVYFKNFIPFMNSLGLVTSNGLPEVENLSKRYEEIYLKNKDLDARLFLDHDKTLQTDSIDSFETQRTPRKSNLDEEVNVIPPHTPVRTVMNTIQQLMMILNSASDQPSENLISYFNNCTVNPKESILKRVKDIGYIFKEKFAKAVGQGCVEIGSQRYKLGVRLYYRVMESMLKSEEERLSIQNFSKLLNDNIFHMSLLACALEVVMATYSRSTSQNLDSGTDLSFPWILNVLNLKAFDFYKVIESFIKAEGNLTREMIKHLERCEHRIMESLAWLSDSPLFDLIKQSKDREGPTDHLESACPLNLPLQNNHTAADMYLSPVRSPKKKGSTTRVNSTANAETQATSAFQTQKPLKSTSLSLFYKKVYRLAYLRLNTLCERLLSEHPELEHIIWTLFQHTLQNEYELMRDRHLDQIMMCSMYGICKVKNIDLKFKIIVTAYKDLPHAVQETFKRVLIKEEEYDSIIVFYNSVFMQRLKTNILQYASTRPPTLSPIPHIPRSPYKFPSSPLRIPGGNIYISPLKSPYKISEGLPTPTKMTPRSRILVSIGESFGTSEKFQKINQMVCNSDRVLKRSAEGSNPPKPLKKLRFDIEGSDEADGSKHLPGESKFQQKLAEMTSTRTRMQKQKMNDSMDTSNKEEK | failed
15 | MALKYPSGKEYRGNKPNAARRPAADYANRGMTLEDDLNATNEYYRERGIAVIHKKPTPVQIVRVDYPKRSAAVITEAYFRQASTTDYNGVYRGKYIDFEAKETKNKTAFPLKNFHAHQIRHMEQVVAHGGICFAILRFSLLNETYLLDASHLIAWWNKQEAGGRKSIPKQEIERHGHSIPLGYQPRIDYISVVDNVYFTR | not failed
16 | MLEAAQGAPASSGRRTRRPGLSEEVLRAYAYACAFCGYDGMLGRNPVGLEAAHIRWHSQDGPDTLANALALCALHHILFGLGVLGLSPGLRIQVSPLYVARSHAGHAVGILHRRPLAPPRPGHPSPGPEHIHWHHQQVFKHAPTPVAR | failed
17 | MNDSIKKINYLFICLFIFLNPLIPYNVKIHNNITVSDILLLVIFVLFLVEILRNRQKLKECFYIMLGDKTLFCLILLFIVMMISVTYAKEKPLALEESLRFFCYIGLYIILSLSYREEKHFKGFVTSFVASVTLISIIGIFQKITGMGIPHQYDYKVNGVTMVRVAAVFGNPNTLAAFMILSIFPIVMFAFFEKNLKKKAFYSILSVLIVYNAALTGSRNSYMGLALGFCVLALIYSIKLILPIIVLGGASMFLPQVTSRLRSIDNKNLNDARIKLWKTALKMIKDHPLSGVGNGNYIANYDAYVKQYPELRYADYSRFPVHNSYLKIESELGIFGGIFFVATIVNVFLKLYNTYKKTDIKIKKAFYLGFIASTSAFLFMNFSDNLLFVPSITSFFWMFVAIGDRH | failed
18 | MPVSQQCIKACGFMHPRRLQWLTFSTSPAHPVRLFLAHLYSFASRFVMTTPNPDPLHGVTLEQILRALIEHYEWSGLAERIDIRCFKSDPSIKSSLTFLRKTPWAREKVEALYVKLHRGKGW | failed
19 | MKKLAIVIPAYKVDFFETVLFSLAQQTCKDFTVYIGEDCSRDDFKSLIEQYSKQLDIVYRRFEVNFGGHDLVAQWNRCIQLTQNEPWLWLFSDDDIMGPRCVEYFFNTIAIDNGAFDIYHFDVKIVDCENQIVRIPTVYPSVIDSETFYRRKASARLDSFVVEYIFLRDIYNCTGGFQHFDLAWGSDIATWVKIGADKGIKTISGDYVYWRKSKKNITPNMDNKMVLRKLTADIEFTHWINEFFHKSSVYRFTKYAFFRLVVHYSQAISKSQIRLLLDKAVGKNIISFNDAFIINWTYRFIQLAKRVKDVLYFLEHHHHHH | not failed
20 | MSEAEAKLWQHLRAGRLNGYKFRRQQPMGNYIVDFMCVTPKLIVEADGGQHAEQAVYDHARTVYLNSLGFTVLRFWNHEILQQTNDVLAEILRVLQELEKQ | not failed
